Protein stability index data for 97 variants are collected here from the supplement of paper PMC10567573.

B1: FBXO3 (parent)
chain: DEEERRRRVFDVPIRRRRCSRLF
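Also: lentivirally expressed fusions sorted by FACS into six bins by GFP to DsRed ratio, PSI derived from sequencing read proportions per bin multiplied by bin number.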

The variants in this data set derive from B1. The data set is described as follows: protein stability index of a GFP-peptide fusion (GPS, HEK-293T) (PSI 1-6); higher = more stable. To be noted: c terminus: native.
On to DEEERRRRVFDVPIRRRRCGRLF [S20G], for which the protein stability index turned out to be 3.48.

As to DEEERRRRVFDVPIRRRRCRRLF [S20R], the protein stability index came to 3.35.

Consider DEEERRRRVFDVPIRRRRCFRLF [S20F], for which the protein stability index amounted to 2.77.

On to DEEERRRRVFDVPIRRRRCERLF [S20E], for which the protein stability index came to 3.04.

As to DEEERRRRVFDVPIRRRRCDRLF [S20D], the protein stability index stood at 2.2.

For DEEERRRRVFDVPIRRRRCQRLF [S20Q], the protein stability index came to 2.69.

On to DEEERRRRVFDVPIRRRRCMRLF [S20M], for which the protein stability index amounted to 2.04.

Turning to DEEERRRRVFDVPIRRRRCHRLF [S20H], the protein stability index was 2.68.

For DEEERRRRVFDVPIRRRRCYRLF [S20Y], the protein stability index stood at 2.22.

For the variant DEEERRRRVFDVPIRRRRCWRLF [S20W], the protein stability index is 2.47.

On to DEEERRRRVFDVPIRRRRCARLF [S20A], for which the protein stability index was determined as 2.15.

As to DEEERRRRVFDVPIRRRRCKRLF [S20K], the protein stability index is 2.69.

For DEEERRRRVFDVPIRRRRCIRLF [S20I], the protein stability index stood at 2.05.

Regarding DEEERRRRVFDVPIRRRRCNRLF [S20N], the protein stability index worked out at 2.61.

For the variant DEEERRRRVFDVPIRRRRDSRLF [C19D], the protein stability index was 3.44.

In the case of DEEERRRRVFDVPIRRRRKSRLF [C19K], the protein stability index is 4.77.

With DEEERRRRVFDVPIRRRRPSRLF [C19P], the protein stability index was determined as 2.56.

Consider DEEERRRRVFDVPIRRRRRSRLF [C19R], for which the protein stability index came to 4.59.

For DEEERRRRVFDVPIRRRRMSRLF [C19M], the protein stability index came out at 3.23.

DEEERRRRVFDVPIRRRRWSRLF [C19W]: the protein stability index came out at 3.64.

Consider DEEERRRRVFDVPIRRRRESRLF [C19E], for which the protein stability index worked out at 1.83.

For DEEERRRRVFDVPIRRRRASRLF [C19A], the protein stability index came to 3.62.

For DEEERRRRVFDVPIRRRRISRLF [C19I], the protein stability index came to 3.49.

In the case of DEEERRRRVFDVPIRRRRQSRLF [C19Q], the protein stability index turned out to be 4.39.

Consider DEEERRRRVFDVPIRRRRTSRLF [C19T], for which the protein stability index was determined as 3.63.

Turning to DEEERRRRVFDVPIRRRRLSRLF [C19L], the protein stability index is 3.54.

With DEEERRRRVFDVPIRRRRFSRLF [C19F], the protein stability index amounted to 3.76.

For the variant DEEERRRRVFDVPIRRRRVSRLF [C19V], the protein stability index was determined as 3.22.

Consider DEEERRRRVFDVPIRRRRNSRLF [C19N], for which the protein stability index amounted to 4.56.

Consider DEEERRRRVFDVPIRRRRSSRLF [C19S], for which the protein stability index is 4.15.

DEEERRRRVFDVPIRRRRYSRLF [C19Y]: the protein stability index came to 3.36.

Turning to DEEERRRRVFDVPIRRRRGSRLF [C19G], the protein stability index is 1.93.

For DEEERRRRVFDVPIRRRRHSRLF [C19H], the protein stability index worked out at 4.39.

As for DEEERRRRVFDVPIRTRRCSRLF [R16T], the protein stability index is 2.19.

As to DEEERRRRVFDVPIRGRRCSRLF [R16G], the protein stability index came out at 3.45.

On to DEEERRRRVFDVPIRVRRCSRLF [R16V], for which the protein stability index stood at 2.27.

Turning to DEEERRRRVFDVPIRCRRCSRLF [R16C], the protein stability index was found to be 1.91.

For the variant DEEERRRRVFDVPIRSRRCSRLF [R16S], the protein stability index was found to be 2.28.

DEEERRRRVFDVPIRARRCSRLF [R16A]: the protein stability index was found to be 2.53.

As for DEEERRRRVFDVPIRDRRCSRLF [R16D], the protein stability index was 2.22.

DEEERRRRVFDVPIRPRRCSRLF [R16P]: the protein stability index is 3.45.

Turning to DEEERRRRVFDVPIRKRRCSRLF [R16K], the protein stability index worked out at 3.51.

For the variant DEEERRRRVFDVPIRWRRCSRLF [R16W], the protein stability index turned out to be 1.99.

On to DEEERRRRVFDVPIRIRRCSRLF [R16I], for which the protein stability index was 2.2.

For DEEERRRRVFDVPIRNRRCSRLF [R16N], the protein stability index came to 2.21.

Take DEEERRRRVFDVPIRLRRCSRLF [R16L]: the protein stability index came out at 2.19.

As to DEEERRRRVFDVPIRERRCSRLF [R16E], the protein stability index is 2.55.

Take DEEERRRRVFDVPIRHRRCSRLF [R16H]: the protein stability index came to 2.23.

In the case of DEEERRRRVFDVPIRFRRCSRLF [R16F], the protein stability index was 1.93.

Turning to DEEERRRRVFDVPIRYRRCSRLF [R16Y], the protein stability index worked out at 1.72.

In the case of DEEERRRRVFDVPIRQRRCSRLF [R16Q], the protein stability index is 2.24.

As to DEEERRRRVFDVPIRMRRCSRLF [R16M], the protein stability index was 2.21.

Take DEEERRRRVFDSPIRRRRCSRLF [V12S]: the protein stability index was 3.24.

Regarding DEEERRRRVFDWPIRRRRCSRLF [V12W], the protein stability index amounted to 2.66.

DEEERRRRVFDNPIRRRRCSRLF [V12N]: the protein stability index was 2.28.

On to DEEERRRRVFDPPIRRRRCSRLF [V12P], for which the protein stability index came out at 2.98.

As for DEEERRRRVFDQPIRRRRCSRLF [V12Q], the protein stability index was 3.24.

With DEEERRRRVFDIPIRRRRCSRLF [V12I], the protein stability index was 2.32.

For DEEERRRRVFDYPIRRRRCSRLF [V12Y], the protein stability index amounted to 2.78.

As to DEEERRRRVFDGPIRRRRCSRLF [V12G], the protein stability index was determined as 3.26.

Turning to DEEERRRRVFDMPIRRRRCSRLF [V12M], the protein stability index was found to be 2.47.

Take DEEERRRRVFDHPIRRRRCSRLF [V12H]: the protein stability index came out at 2.69.

As to DEEERRRRVFDLPIRRRRCSRLF [V12L], the protein stability index amounted to 2.61.

In the case of DEEERRRRVFDRPIRRRRCSRLF [V12R], the protein stability index came to 3.62.

On to DEEERRRRVFDKPIRRRRCSRLF [V12K], for which the protein stability index came to 3.25.

For the variant DEEERRRRVFDTPIRRRRCSRLF [V12T], the protein stability index was determined as 2.75.

With DEEERRRRVFDFPIRRRRCSRLF [V12F], the protein stability index worked out at 2.6.

DEEERRRRVFDVPIRRRRCSKLF [R21K]: the protein stability index worked out at 3.27.

For DEEERRRRVFDVPIRRRRCSFLF [R21F], the protein stability index was 3.04.

Take DEEERRRRVFDVPIRRRRCSSLF [R21S]: the protein stability index was 4.35.

As for DEEERRRRVFDVPIRRRRCSGLF [R21G], the protein stability index is 2.36.

As for DEEERRRRVFDVPIRRRRCSLLF [R21L], the protein stability index stood at 2.6.

In the case of DEEERRRRVFDVPIRRRRCSYLF [R21Y], the protein stability index was determined as 3.08.

On to DEEERRRRVFDVPIRRRRCSDLF [R21D], for which the protein stability index turned out to be 3.91.

In the case of DEEERRRRVFDVPIRRRRCSWLF [R21W], the protein stability index is 2.53.

Turning to DEEERRRRVFDVPIRRRRCSCLF [R21C], the protein stability index was 4.79.

Consider DEEERRRRVFDVPIRRRRCSMLF [R21M], for which the protein stability index is 2.87.

As for DEEERRRRVFDVPIRRRRCSHLF [R21H], the protein stability index was determined as 3.59.

With DEEERRRRVFDVPIRRRRCSVLF [R21V], the protein stability index is 2.98.

As to DEEERRRRVFDVPIRRRRCSALF [R21A], the protein stability index worked out at 4.48.

With DEEERRRRVFDVPIRRRRCSPLF [R21P], the protein stability index was 2.72.

DEEERRRRVFDVPIRRRRCSQLF [R21Q]: the protein stability index amounted to 3.62.

As for DEEERRRRVFDVPIRRRRCSTLF [R21T], the protein stability index was determined as 3.85.

Consider DEEERRRRVFDVPIRRRRCSILF [R21I], for which the protein stability index came to 2.93.

With DEEERRRRVFDVPIRRRRCSNLF [R21N], the protein stability index is 3.99.

As for DEEERRRRVFDVPIRRRRCSELF [R21E], the protein stability index was 3.46.

Consider DEEERRRRVFDVPIRRRRCSREF [L22E], for which the protein stability index is 4.92.

For the variant DEEERRRRVFDVPIRRRRCSRFF [L22F], the protein stability index is 4.44.

Turning to DEEERRRRVFDVPIRRRRCSRGF [L22G], the protein stability index turned out to be 3.06.

As for DEEERRRRVFDVPIRRRRCSRKF [L22K], the protein stability index came to 4.67.

On to DEEERRRRVFDVPIRRRRCSRHF [L22H], for which the protein stability index worked out at 2.94.

As to DEEERRRRVFDVPIRRRRCSRIF [L22I], the protein stability index is 2.82.

As for DEEERRRRVFDVPIRRRRCSRAF [L22A], the protein stability index turned out to be 3.3.

DEEERRRRVFDVPIRRRRCSRCF [L22C]: the protein stability index amounted to 2.71.

DEEERRRRVFDVPIRRRRCSRMF [L22M]: the protein stability index amounted to 2.28.

Consider DEEERRRRVFDVPIRRRRCSRNF [L22N], for which the protein stability index stood at 2.09.

As to DEEERRRRVFDVPIRRRRCSRDF [L22D], the protein stability index worked out at 4.94.
